The subject of the experiment is hPSCs cultured in Gel-3D. Kind of experiment: hPSC amniogenesis assay (Gel-3D culture), requirement of BMP-SMAD signalling. The experiment is classed as cell-based, human. An excerpt: Implantation-Like Niche Described herein is a biomimicry approach to engineer a biomaterial-based in vitro hPSC culture system for efficient generation of early human amniotic tissue. Specifically, a biomimetic implantation-like niche for cultured hPSCs was constructed by implementing two major biophysical factors seen in the in vivo amniogenic niche: a three-dimensional (3D) extracellular matrix (ECM) that is provided by the basement membrane surrounding the epiblast during implantation 1l; and a soft tissue bed provided by the uterine wall and trophoblast to support the developing amnion (FIG. 1a,b). mTeSR1 medium and basement membrane matrix (Geltrex) was used to render the culture permissive for pluripotency maintenance. In this culture system, H9 human embryonic stem cells (hESCs) were plated as single cells at 30,000 cells cm^2 onto a thick, soft gel bed of Geltrex (with thickness 100 μm, bulk Young's modulus 900 Pa, coated on a glass coverslip), in mTeSR1 medium supplemented with the ROCK inhibitor Y2763212 (FIG. 1b). At 24 h (day 1), medium containing Y27632 was replaced by fresh mTeSR1 supplemented with 4% (v/v) Geltrex to establish a 3D implantation-like niche (referred to henceforth as the ‘Gel-3D’ condition). To assess the effect of ECM dimensionality and matrix rigidity, respectively, several modifications of this Gel-3D condition were tested (FIG. 1b). First, the Geltrex supplement was excluded from the medium, with the gel bed retained (referred to henceforth as the ‘Gel-2D’ condition). Second, the soft gel bed was replaced by a 1% Geltrex-coated glass coverslip (referred to henceforth as the ‘Glass-3D’ condition). Finally, a standard 2D culture, using a 1% Geltrex-coated glass coverslip (referred to henceforth as the ‘Glass-2D’ condition), was examined as a control that maintains hPSC self-renewal. Culture medium was replenished daily. Analyses were performed at day 5 unless otherwise noted (FIG. 1b). […]

Turning to `c1ccc2c(-c3cnn4cc(-c5ccc(N6CCNCC6)cc5)cnc34)ccnc2c1` [LDN193189, reference compound], the hPSC-amnion development entry (hPSCs cultured in Gel-3D, treatment on day 2 alone or on both days 2 and 3, FIG. 5d) was “inhibited hPSC-amnion development”.

B1: NOGGIN: a protein that antagonizes BMP2/4/7 (protein, UniProt Q13253 28-232, looked up)
Noggin: QHYLHIRPAPSDNLPLVDLIEHPDPIFDPKEKDLNETLLRSLLGGHYDPGFMATSPPEDRPGGGGGAAGGAEDLAELDQLLRQRPSGAMPSEIKGLEFSEGLAQGKKQRLSKKLRRKLQMWLWSQTFCPVLYAWNDLGSRFWPRYVKVGSCFSKRSCSVPEGMVCKPSKSVHLTVLRWRCQRRGGQRCGWIPIQYPIISECKCSC
B1: the “development of hPSC-amnion” value (hPSCs in Gel-3D, treatment with NOGGIN) was “inhibited”. Further, the amniogenic differentiation entry (restatement in Example 2 of the BMP-SMAD requirement for amniogenesis) was “inhibit amniogenic differentiation”.

Values taken from patent US12558381B2, “Development of amnion-like tissue from human pluripotent stem cells” (THE REGENTS OF THE UNIVERSITY OF MICHIGAN, priority 2016, dated 2026).
